Measured values published in patent US20220332804A1 (CSL INNOVATION, published 2022).
Residue numbers refer to the chain shown, from its start.

Legend:
Experiment in all cases: SPR, antibody captured, C2 as analyte;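 further: biacore SPR at 37 °C, anti-C2 mAbs captured via goat anti-human IgG on CM5 chips, double-referenced sensorgrams fit to a 1:1 kinetic or steady-state model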
human C2 D561A = biological target: T1, human C2 D561A (human, UniProt P06681 21-752)
T1 sequence: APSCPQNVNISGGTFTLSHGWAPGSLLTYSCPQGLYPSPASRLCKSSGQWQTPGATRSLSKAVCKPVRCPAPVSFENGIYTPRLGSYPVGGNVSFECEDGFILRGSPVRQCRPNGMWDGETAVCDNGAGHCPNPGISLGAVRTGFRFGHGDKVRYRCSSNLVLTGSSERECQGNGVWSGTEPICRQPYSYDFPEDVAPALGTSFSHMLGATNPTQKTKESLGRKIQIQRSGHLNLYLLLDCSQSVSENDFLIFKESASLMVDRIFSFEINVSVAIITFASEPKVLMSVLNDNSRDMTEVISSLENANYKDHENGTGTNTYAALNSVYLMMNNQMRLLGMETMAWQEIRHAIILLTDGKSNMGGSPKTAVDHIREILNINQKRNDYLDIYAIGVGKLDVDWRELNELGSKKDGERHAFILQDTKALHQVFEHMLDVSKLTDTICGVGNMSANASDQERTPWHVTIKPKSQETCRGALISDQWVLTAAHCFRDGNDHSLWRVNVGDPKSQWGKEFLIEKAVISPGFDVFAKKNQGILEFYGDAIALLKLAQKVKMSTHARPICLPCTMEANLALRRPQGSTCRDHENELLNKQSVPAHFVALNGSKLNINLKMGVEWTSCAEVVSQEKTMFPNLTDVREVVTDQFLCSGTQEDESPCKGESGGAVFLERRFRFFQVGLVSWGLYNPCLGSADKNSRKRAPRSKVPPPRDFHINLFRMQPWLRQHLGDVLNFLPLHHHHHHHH

human C2 M648A = biological target: T2, human C2 M648A (human, UniProt P06681 21-752)
T2 sequence: T1 sequence with A541D, M628A

human C2 D431A = biological target: T3, human C2 D431A (human, UniProt P06681 21-752)
T3 sequence: T1 sequence with D411A, A541D

human C2 G530A = biological target: T4, human C2 G530A (human, UniProt P06681 21-752)
T4 sequence: T1 sequence with G510A, A541D

B1: RF16-226 (antibody, human IgG4 S228P, lambda)
heavy: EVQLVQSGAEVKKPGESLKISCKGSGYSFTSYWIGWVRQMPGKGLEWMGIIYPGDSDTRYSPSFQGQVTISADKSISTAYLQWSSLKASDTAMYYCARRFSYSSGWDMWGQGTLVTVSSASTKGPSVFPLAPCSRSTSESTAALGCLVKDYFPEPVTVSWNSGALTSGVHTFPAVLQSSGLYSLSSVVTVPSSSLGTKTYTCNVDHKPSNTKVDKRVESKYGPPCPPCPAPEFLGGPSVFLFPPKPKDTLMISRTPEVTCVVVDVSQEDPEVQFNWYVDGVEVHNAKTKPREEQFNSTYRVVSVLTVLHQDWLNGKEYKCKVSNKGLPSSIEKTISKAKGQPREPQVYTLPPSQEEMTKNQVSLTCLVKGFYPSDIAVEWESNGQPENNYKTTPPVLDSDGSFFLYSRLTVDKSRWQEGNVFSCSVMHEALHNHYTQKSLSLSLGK
light: SYELTQPPSVSVSPGQTARITCSGDALTSKYVAWYQQKSGLAPLLVIYEDTRRPSGIPAKFSGSSSGSVATLTISGAHGDDEADYYCYSTDASGHQRVFGGGTKLTVLSQPKAAPSVTLFPPSSEELQANKATLVCLISDFYPGAVTVAWKADGSPVKAGVETTKPSKQSNNKYAASSYLSLTPEQWKSHRSYSCQVTHEGSTVEKTVAPTECS
notes: pH-dependent anti-C2 antibody from a phage display library; also called WT
Kd (human C2 D561A): 102 nM | Kd (human C2 M648A): 203 nM | Kd (human C2 D431A): 43.4 nM | Kd (human C2 G530A): 16.7 nM
